Results taken from patent publication US20130029377.

Biological target: Apolipoprotein A-1 Milano (ApoA-1M)
Sequence (chain, as listed by the source): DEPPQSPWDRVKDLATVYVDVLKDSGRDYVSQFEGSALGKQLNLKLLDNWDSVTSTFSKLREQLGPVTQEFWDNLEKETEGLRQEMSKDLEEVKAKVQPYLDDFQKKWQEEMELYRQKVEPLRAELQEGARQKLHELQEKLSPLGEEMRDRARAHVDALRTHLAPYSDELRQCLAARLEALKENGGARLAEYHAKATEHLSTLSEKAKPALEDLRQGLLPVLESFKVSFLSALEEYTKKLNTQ

B1: outer membrane protease 3B (Protease 7 precursor, or OmpT) (protein)
chain: STETLSFTPDNINADISLGTLSGKTKERVYLAEEGGRKVSQLDWKFNNAAIIKGAINWDLMPQISIGAAGWTTLGSRGGNMVDQDWMDSSNPGTWTDESRHPDTQLNYANEFDLNIKGWLLNEPNYRLGLMAGYQESRYSFTARGGSYIYSSEEGFRDDIGSFPNGERAIGYKQRFKMPYIGLTGSYRYEDFELGGTFKYSGWVESSDNDEHYDPGKRITYRSKVKDQNYYSVAVNAGYYVTPNAKVYVEGAWNRVTNKKGNTSLYDHNNNTSDYSKNGAGIENYNFITTAGLKYTF
ApoA-1M K238/K239 truncated species (% total ApoA-1M), Capture pool, ompT+ strain ΔdppAΔoppAΔmalE (% total ApoA-1M): 1.9 | ApoA-1M K238/K239 truncated species (% total ApoA-1M), DEAE pool, ompT+ strain ΔdppAΔoppAΔmalE (% total ApoA-1M): 1.3 | ApoA-1M K238/K239 truncated species (% total ApoA-1M), DEAE post-peak pool, ompT+ strain ΔdppAΔoppAΔmalE (% total ApoA-1M): 7 | ApoA-1M K238/K239 truncated species (% total ApoA-1M), selected DEAE post-peak fraction, ompT+ strain ΔdppAΔoppAΔmalE (% total ApoA-1M): 14.2 | K238/K239 truncation of ApoA-1M, ompT+ strain against ΔompT strain: marked (~5- to 20-fold) reduction in the amount of truncated ApoA-1M in the GB004 strain compared with the 3K0 strain
